Measured values published in patent US20120321619A1 (Bayer, published 2012).
Where a chain is given by its changes, count along the chain named.

T1: human C4.4a on transfected A549:hC4.4a cells (human, UniProt O95274 31-326)
T1 sequence: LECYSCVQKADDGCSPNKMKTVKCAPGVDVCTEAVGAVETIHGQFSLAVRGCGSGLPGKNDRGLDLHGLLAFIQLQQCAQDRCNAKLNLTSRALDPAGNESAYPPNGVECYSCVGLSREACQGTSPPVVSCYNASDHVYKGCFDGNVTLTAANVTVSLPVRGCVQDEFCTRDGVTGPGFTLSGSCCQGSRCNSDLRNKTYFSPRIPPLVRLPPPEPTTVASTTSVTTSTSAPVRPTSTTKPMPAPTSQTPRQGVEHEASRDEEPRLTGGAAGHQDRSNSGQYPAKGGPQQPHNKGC

T2: human C4.4a natively expressed on tumor cell lines (human, UniProt O95274 31-326)
T2 construct: whole, on cells; also called NCI H292; NCI H322
T2 sequence (looked up): T1 sequence

T3: murine C4.4a on transfected CHO-S:mC4.4a cells (mouse, UniProt Q91YK8 33-343)
T3 construct: full length GPI-anchored form, stably transfected; also called Mouse C4.4a:CHO; mC4.4a: CHO
T3 sequence: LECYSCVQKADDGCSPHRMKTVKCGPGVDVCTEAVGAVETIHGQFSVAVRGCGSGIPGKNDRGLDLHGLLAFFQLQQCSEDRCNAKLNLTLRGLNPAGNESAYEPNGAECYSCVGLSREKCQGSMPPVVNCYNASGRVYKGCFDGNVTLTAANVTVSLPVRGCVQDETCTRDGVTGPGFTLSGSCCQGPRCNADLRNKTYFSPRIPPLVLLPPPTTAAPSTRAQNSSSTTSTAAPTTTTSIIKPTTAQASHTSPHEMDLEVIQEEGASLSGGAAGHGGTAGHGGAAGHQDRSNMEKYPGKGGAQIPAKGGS

T4: recombinant soluble human C4.4a (human, UniProt O95274 31-308)
T4 construct: recombinant, soluble, purified protein; also called hC4.4a; full length C4.4a
T4 sequence: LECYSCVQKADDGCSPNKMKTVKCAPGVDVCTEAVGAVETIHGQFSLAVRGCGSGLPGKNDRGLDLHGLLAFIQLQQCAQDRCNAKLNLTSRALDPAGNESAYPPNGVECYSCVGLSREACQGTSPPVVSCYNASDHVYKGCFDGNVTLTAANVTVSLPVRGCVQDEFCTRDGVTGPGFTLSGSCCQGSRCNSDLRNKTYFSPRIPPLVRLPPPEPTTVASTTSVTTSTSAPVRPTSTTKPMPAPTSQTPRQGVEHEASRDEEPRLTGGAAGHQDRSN

T5: recombinant soluble murine C4.4a (mouse, UniProt Q91YK8 33-343, limits assumed)
T5 construct: also called mouse C4.4a; mC4.4a
T5 sequence (looked up): T3 sequence

B1: D02-6 (antibody, human IgG1, V domains shown)
VH: EVQLLESGGGLVQPGGSLRLSCAASGFTFSDYQMTWIRQTPGKGLEWVSGISWNGGSTHYADSVKGRFTISRDNSKNTLYLQMNSLRAEDTAVYYCAKGDYLVYSSYYFKSWGQGTLVTVSS
VL: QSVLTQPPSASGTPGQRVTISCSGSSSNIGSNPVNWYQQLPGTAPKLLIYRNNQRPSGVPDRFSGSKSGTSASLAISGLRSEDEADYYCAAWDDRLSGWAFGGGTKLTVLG
notes: tested as human IgG1; also called D02-06
B2: D02-11 (antibody, V domains shown)
VH: B1 VH
VL: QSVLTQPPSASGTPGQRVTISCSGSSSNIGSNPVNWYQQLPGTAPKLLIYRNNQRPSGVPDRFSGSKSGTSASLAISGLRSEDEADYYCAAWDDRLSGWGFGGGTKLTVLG
notes: tested as human IgG1
B3: D02-7 (antibody, human IgG1, V domains shown)
VH: B1 VH with S105K
VL: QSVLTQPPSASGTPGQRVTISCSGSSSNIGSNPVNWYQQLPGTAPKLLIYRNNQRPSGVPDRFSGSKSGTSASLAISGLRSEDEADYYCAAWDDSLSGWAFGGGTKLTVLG
notes: tested as human IgG1; also called D02-07
B4: B01-3 (antibody, human IgG1, V domains shown)
VH: EVQLLESGGGLVQPGGSLRLSCAASGFTFSNAWMSWVRQAPGKGLEWVSYISSSGSTIYYADSVKGRFTISRDNSKNTLYLQMNSLRAEDTAVYYCAREGLWAFDYWGQGTLVTVSS
VL: ESVLTQPPSVSGAPGQRVTISCTGSSSNIGAGYVVHWYQQLPGTAPKLLIYDNNKRPSGVPDRFSGSKSGTSASLAISGLRSEDEADYYCAAWDDRLNGPVFGGGTKLTVLG
notes: tested as human IgG1; also called B01-03
B5: B01-10 (antibody, human IgG1, V domains shown)
VH: B4 VH with N31S
VL: B4 VL with E1Q, W93Y, R96S, N98S
notes: tested as human IgG1
B6: D02-13 (antibody, human IgG1, V domains shown)
VH: B1 VH with D31S, T40A, S105K
VL: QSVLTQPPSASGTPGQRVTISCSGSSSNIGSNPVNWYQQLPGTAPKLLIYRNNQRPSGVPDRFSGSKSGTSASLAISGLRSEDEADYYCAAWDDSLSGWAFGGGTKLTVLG
notes: tested as human IgG1
B7: B01-5 (antibody, human IgG1, V domains shown)
VH: B4 VH
VL: B4 VL with E1Q, W93Y, R96S, N98S
notes: tested as human IgG1; also called B01-05
B8: B01-12 (antibody, V domains shown)
VH: B4 VH with N31S, T57S, I58T, Y106K
VL: B4 VL with E1Q, V10A, A13T, T23S, K55Q, W93F, N98S
notes: tested as human IgG1
B9: D02-4 (antibody, human IgG1, V domains shown)
VH: B1 VH with S106A, K110D
VL: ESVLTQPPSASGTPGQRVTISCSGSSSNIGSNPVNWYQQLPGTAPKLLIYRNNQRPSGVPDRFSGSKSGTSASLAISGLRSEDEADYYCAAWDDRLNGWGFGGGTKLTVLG
notes: tested as human IgG1; also called D02-04
B10: M20-D02 S-A Fab LC V97A (Fab, V domains shown)
VH: B1 VH with I51V, G56A, S57R, S106A, K110D, S121T
VL: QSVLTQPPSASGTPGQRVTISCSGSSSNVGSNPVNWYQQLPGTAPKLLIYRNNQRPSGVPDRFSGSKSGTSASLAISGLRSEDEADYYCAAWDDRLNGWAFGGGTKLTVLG
notes: Fab with 3×HA-tag and hexa-histidine tag at the C-terminus of the heavy chain, culture supernatant
B11: M20-D02 S-A Fab LC D92G (Fab, V domains shown)
VH: B1 VH with I51V, G56A, S57R, S106A, K110D, S121T
VL: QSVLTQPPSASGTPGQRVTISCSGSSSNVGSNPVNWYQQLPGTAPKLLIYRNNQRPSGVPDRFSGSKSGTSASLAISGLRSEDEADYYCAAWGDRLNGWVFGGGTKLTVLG
notes: as for B10
B12: M20-D02 S-A Fab LC V97G (Fab, V domains shown)
VH: B1 VH with I51V, G56A, S57R, S106A, K110D, S121T
VL: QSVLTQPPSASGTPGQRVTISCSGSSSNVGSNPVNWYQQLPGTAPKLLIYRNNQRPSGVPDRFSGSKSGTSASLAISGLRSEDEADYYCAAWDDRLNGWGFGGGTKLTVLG
notes: as for B10

What follows are binders tested against T1, human C4.4a on transfected A549:hC4.4a … (assay: cell-based or functional assay).

Row | internalization t½ [min] into A549:hC4.4a cells (CypHer 5E labeled antibody) | Binder
1 | 39 min | B1
2 | 22 min | B2
3 | 33 min | B3
4 | 55 min | B4
5 | 30 min | B5

What follows are binders tested against T2, human C4.4a natively expressed on tumor … (assay: FACS titration of IgG1 on NCI H292 cells).
Procedure: FACS titration was performed in a 96 well microtiter plate, in which serial dilutions of the primary antibody in a volume of 50 W of FACS buffer (3% FCS, in PBS) were mixed with 50 μl of a cell suspension consisting of 2×10^5 cells/ml which had been detached with Cell Dissociation Solution (1×) Non-enzymatic (Sigma), and resuspended in FACS buffer. Incubation was performed at 4° C. for 1 hour with agitation. Cells were pelleted, washed with FACS buffer and resuspended in 100 μl/well of Phycoerythrin labeled goat anti human IgG (Dianova) solution in FACS buffer. Incubation and washing was performed as before. Analysis of cell-bound antibodies was done at the respective detection wavelength using the FACS Array device. EC₅₀ values were determined from fluorescence medians of duplicates using Swift 8.0 software.

Row | EC50 | Binder
6 | 0.02 nM | B1
7 | 0.01 nM | B2
8 | 0.03 nM | B3
9 | 0.12 nM | B6
10 | 0.05 nM | B7
11 | 0.06 nM | B4
12 | 0.1 nM | B5

What follows are binders tested against T3, murine C4.4a on transfected … (assay: FACS titration of IgG1 on CHO-S:mC4.4a cells).

Row | EC50 | Binder
13 | 1 nM | B1
14 | 1.7 nM | B2
15 | 0.78 nM | B3
16 | 2 nM | B6
17 | 1.2 nM | B7
18 | 0.36 nM | B4
19 | 0.43 nM | B5
20 | 1.4 nM | B8

What follows are binders tested against T4, recombinant soluble human C4.4a (assay: SPR (Biacore T100), IgG1 captured by anti-human Fc, soluble C4.4a injected, 1:1 fit).
Procedure: (§1) Binding affinities of anti C4.4 antibodies were determined by surface plasmon resonance analysis on a Biacore T100 instrument (GE Healthcare Biacore, Inc.). Antibodies were immobilized onto a CM5 sensor chip through an indirect capturing reagent, anti-human IgG Fc. Reagents from the “Human Antibody Capture Kit” (BR-1008-39, GE Healthcare Biacore, Inc.) were used as described by the manufacturer. Approximately 5000 RU monoclonal mouse anti-human IgG (Fc) antibody were immobilized per cell. Anti C4.4 antibodies were injected at a concentration of 5 μg/ml at 10 μl/min for 10 sec to reach a capturing level of approximately 200 to 600 RU. Various concentrations (400 nM, 200 nM, 100 nM, 50 nM, 25 nM, 12.5 nM, 6.25 nM, and 3.12 nM) in HEPES-EP buffer (GE Healthcare Biacore, Inc.) of human or murine C4.4a were injected over immobilized anti C4.4a antibodies at a flow rate of 60 μl/min for 3 minutes and the dissociation was allowed for 10 minutes. Sensograms were generated after in-line reference cell correction followed by buffer sample subtraction. The dissociation equilibrium constant (KD) was calculated based on the ratio of association (kₒₙ) and dissociation rated (koff) constants, obtained by fitting sensograms with a first order 1:1 binding model using Biavaluation Software (version 4.0).

Row | Kd | Binder
21 | 6 nM | B1
22 | 10 nM | B2
23 | 9 nM | B3
24 | 29 nM | B9
25 | 2 nM | B6
26 | 4 nM | B7
27 | 60 nM | B4
28 | 4 nM | B5
29 | 1 nM | B8

Each binder was assayed against T5, recombinant soluble murine C4.4a in the same assay as above.
Procedure: as §1

Row | Kd | Binder
30 | 21 nM | B1
31 | 24 nM | B2
32 | 22 nM | B3
33 | 56 nM | B9
34 | 42 nM | B6
35 | 10 nM | B7
36 | 120 nM | B4
37 | 1 nM | B5
38 | 2 nM | B8

What follows are binders tested against T4, recombinant soluble human C4.4a (assay: direct ELISA, Fab supernatant on coated human C4.4a, signal normalized to Fab quantity).
Procedure: (§2) Cultures were diluted in 10% Smart Block in PBST and bound to the MTP plates for 1 h at 20° C. After washing with PBST, captured antibodies were incubated with a HRP-coupled anti-lambda antibody (Sigma, A5175) and detected by incubating the plate with 10 μM amplex red substrate (Invitrogen, A12222) for 30 minutes at 20° C. in the dark followed by fluorescence measurement. Determined quantification signals were checked to be in the dynamic range of an calibration series built up with concentrated parental Fab (M31-B01 or M20-D02-S-A) expression culture supernatant allowing a relative quantification of each individual Fab expression sample.
(§3) To determine the activity of the mutated Fab variants on recombinant soluble human or mouse C4.4a a direct ELISA assay format was used. Briefly, MTP plates (Nunc maxisorp black, 460518) were coated with 2 μg/ml either human or mouse C4.4a diluted in coating buffer (Candor Bioscience GmbH, 121125) and incubated for 15 h at 4° C. After washing 3 times with PBST, plates were blocked with 100% Smart Block (Candor Bioscience GmbH, 113500) for 1 h at 20° C. and the washing steps were repeated. For binding of the Fab antibody fragments 20 μl of culturing supernatants were added to the plates for 1 h at 20° C. followed by washing. In some cases the washing stringency was increased by an additional incubation step with 10% Smart Block in PBST for 90 min followed by washing 3 times with PBST (“process B” in Table 10b). Bound parental Fabs and variants were then detected by a HA-epitope tag specific antibody HRP conjugate (Bethyl, A190-108P). 10 μM amplex red substrate (Invitrogen, A12222) was added to the plates and the fluorescence signal was detected using a common fluorescence reader, e.g. Tecan Ultra. Quantity normalized affinity signals were calculated as ratios of background corrected affinity and quantification signals in the respective ELISA: (Signalaffinity−Backgroundaffinity)/(Signalquantity−Backgroundquantity). The resulting values correlate mainly with the affinity in a positive manner, whereas not normalized values correlate additionally with the concentration of the binding Fab in the sample.

Row | normalized affinity signal (average) | Binder
39 | 1.32 | B10
40 | 0.64 | B11
41 | 1.21 | B12

The binders below were run against T5, recombinant soluble murine C4.4a (assay: direct ELISA, Fab supernatant on coated mouse C4.4a, signal normalized to Fab quantity).
Procedure: as §2, §3

Row | normalized affinity signal (average) | Binder
42 | 0.52 | B10
43 | 0.1 | B11
44 | 0.3 | B12
